For the experiment, the target named is Acetylcholine receptor on AchR-overexpressed TE671 cells. Kind of experiment: cell-based or functional assay.

The results in this text go back to patent EP3904368A2.

Synake (peptide) came in with an IC50 value for AchR (inhibition of AchR action, TE671 cells) of 75 µM.
